Data reported in patent publication US20130035471A1.

Columns and labels:
[1] = biological target: biotinylated IgG; assay: BIAcore, biotinylated IgG immobilised, mutein injected
[2] = biological target: biotinylated IgG; assay: BIAcore; half-life calculated as 0.693/koff/60

Sequence of 2-aa-loop mutein (streptavidin, loop7-8 replaced by N G) (P22629 other isoform, or with tags, fused parts or gaps mutant): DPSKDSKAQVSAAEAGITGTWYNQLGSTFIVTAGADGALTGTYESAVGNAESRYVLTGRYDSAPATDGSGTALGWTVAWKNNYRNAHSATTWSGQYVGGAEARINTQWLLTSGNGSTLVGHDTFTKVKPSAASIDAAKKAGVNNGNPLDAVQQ
Sequence of 6-aa-loop mutein (streptavidin, loop7-8 replaced by D S N G S G) (P22629 other isoform, or with tags, fused parts or gaps mutant): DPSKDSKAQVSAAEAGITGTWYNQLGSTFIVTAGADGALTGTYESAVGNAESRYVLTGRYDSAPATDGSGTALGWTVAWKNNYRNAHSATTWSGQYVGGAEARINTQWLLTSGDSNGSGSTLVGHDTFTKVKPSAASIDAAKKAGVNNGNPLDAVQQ

Kd [1] [nM] | koff [1] [s⁻¹] | kon [1] [M⁻¹ s⁻¹] | t1/2 [2] [h] | Substance
8.1 | 0.0004 | 49600 | 0.482 | ΔW-HC mutein (streptavidin with Trp-120 deleted and H127C) (from UniProt P22629 25-183)
3.13 | 7.59e-05 | 24300 | 2.53 | 6-aa-loop mutein (streptavidin, loop7-8 replaced by D S N G S G) (from UniProt P22629 25-183)
19 | 0.000428 | 22100 | 0.45 | 8-aa-loop-H127C mutein (streptavidin, loop7-8 replaced by D S S N G S D G, with H127C) (from UniProt P22629 25-183)
1.12 | 7.02e-05 | 63000 | 2.75 | 2-aa-loop mutein (streptavidin, loop7-8 replaced by N G) (from UniProt P22629 25-183)
